Patent US20070237776A1 (Regeneron, published 2007)
Each block holds one binder with its values, some of them ahead of it.

Columns and labels:
[1] = molecular target: T1, human interleukin-18 receptor alpha (hIL-18Rα) on cells (human, UniProt Q13478 19-541); assay: cell-based or functional assay
T1 sequence: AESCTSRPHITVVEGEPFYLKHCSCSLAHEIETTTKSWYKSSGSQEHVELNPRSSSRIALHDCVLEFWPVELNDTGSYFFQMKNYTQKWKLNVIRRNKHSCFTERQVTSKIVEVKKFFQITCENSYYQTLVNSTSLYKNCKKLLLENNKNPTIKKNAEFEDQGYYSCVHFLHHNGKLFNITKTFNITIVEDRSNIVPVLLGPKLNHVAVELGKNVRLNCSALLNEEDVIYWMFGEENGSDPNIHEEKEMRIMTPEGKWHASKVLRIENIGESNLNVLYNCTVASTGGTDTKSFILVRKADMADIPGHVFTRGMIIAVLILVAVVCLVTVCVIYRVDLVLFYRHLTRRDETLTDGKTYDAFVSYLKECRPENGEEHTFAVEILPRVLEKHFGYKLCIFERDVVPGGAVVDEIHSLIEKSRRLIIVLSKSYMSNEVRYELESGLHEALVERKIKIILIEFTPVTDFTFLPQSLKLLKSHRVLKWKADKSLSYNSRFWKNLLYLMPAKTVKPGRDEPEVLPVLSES

[2] = molecular target: T2, hIL-18Rα-hFc fusion protein (human, UniProt Q13478 19-329, limits assumed); assay: SPR (BIAcore), antibody from conditioned medium captured on anti-mouse IgG, hIL-18Rα-hFc in solution
T2 construct: also called IL-18R1-hFc; not shown: human Fc
T2 sequence: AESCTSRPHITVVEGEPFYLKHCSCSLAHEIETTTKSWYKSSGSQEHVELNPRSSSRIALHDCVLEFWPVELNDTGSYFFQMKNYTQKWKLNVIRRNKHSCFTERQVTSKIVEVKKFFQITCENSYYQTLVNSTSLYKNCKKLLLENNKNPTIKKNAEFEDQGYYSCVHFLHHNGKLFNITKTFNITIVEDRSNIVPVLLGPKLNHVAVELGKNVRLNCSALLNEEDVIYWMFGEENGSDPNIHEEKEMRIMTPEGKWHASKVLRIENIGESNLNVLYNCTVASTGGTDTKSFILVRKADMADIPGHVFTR
Description: The KD of the antigen binding to the selected antibodies described above were determined by surface kinetics on a real-time biosensor surface plasmon resonance assay (BIAcore™). The antibody derived from hybridoma was captured on an anti-mouse IgG surface and exposed to various concentrations of hIL-18Rα-hFc fusion protein. Kinetic analysis using evaluation software was performed to obtain the association and dissociation rate constants.

[3] = molecular target: T2, hIL-18Rα-hFc fusion protein; assay: ELISA solution affinity: antibody premixed with serial dilutions of hIL-18Rα-hFc, free antibody caught on hIL-18Rα-hFc-coated plate
Description: Binding affinity of the antibodies to antigen were also measured using a immunoassay. Antibodies were characterize from hybridoma conditioned medium or as purified protein. Protein was purified after hybridoma cells were grown in low IgG medium and affinity purified using Protein G. IC₅₀ of antigen binding was determined with an ELISA-based assay. Briefly, constant amounts of antibody at different levels, either in hybridoma conditioned medium or purified, were premixed with serial dilutions of antigen protein, hIL-18Rα-hFc, ranging from 0 to 10 mg/ml, and incubated for two hours at room temperature to reach pseudo-binding equilibrium between the antibody and antigen. These solutions were then transferred to 96-well hIL-18Rα-hFc pre-coated plates (solid phase) to allow the free-antibody in the mixtures to bind to plate-coated hIL-18Rα-hFc. […] After washing off excess antibody in solution, the plate-bound antibodies were detected with an HRP-conjugated goat anti-mouse IgG polyclonal antibody reagent and developed using either colorimetric or chemiluminescent substrates. The dependency of the signals on the concentrations of antigen in solution was analyzed with a 4 parameter fit analysis using Prism™ software from Graph Pad™ and reported as IC₅₀ that render 50% reduction of antibody binding to plate-coated antigen.

[4] = molecular target: T3, monomeric receptor, hIL18Rα-hIL-18Rb-myc-myc-his (human, UniProt O95256 20-356, limits assumed); assay: SPR (BIAcore), mAb from subclone hybridoma supernatant captured on anti-mouse IgG, monomeric receptor 50-12.5 nM, 1:1 model
T3 construct: Construct known only by its name; also called monomeric antigen; monomeric hIL-18Rα; not shown: myc-myc-his tag
T3 sequence: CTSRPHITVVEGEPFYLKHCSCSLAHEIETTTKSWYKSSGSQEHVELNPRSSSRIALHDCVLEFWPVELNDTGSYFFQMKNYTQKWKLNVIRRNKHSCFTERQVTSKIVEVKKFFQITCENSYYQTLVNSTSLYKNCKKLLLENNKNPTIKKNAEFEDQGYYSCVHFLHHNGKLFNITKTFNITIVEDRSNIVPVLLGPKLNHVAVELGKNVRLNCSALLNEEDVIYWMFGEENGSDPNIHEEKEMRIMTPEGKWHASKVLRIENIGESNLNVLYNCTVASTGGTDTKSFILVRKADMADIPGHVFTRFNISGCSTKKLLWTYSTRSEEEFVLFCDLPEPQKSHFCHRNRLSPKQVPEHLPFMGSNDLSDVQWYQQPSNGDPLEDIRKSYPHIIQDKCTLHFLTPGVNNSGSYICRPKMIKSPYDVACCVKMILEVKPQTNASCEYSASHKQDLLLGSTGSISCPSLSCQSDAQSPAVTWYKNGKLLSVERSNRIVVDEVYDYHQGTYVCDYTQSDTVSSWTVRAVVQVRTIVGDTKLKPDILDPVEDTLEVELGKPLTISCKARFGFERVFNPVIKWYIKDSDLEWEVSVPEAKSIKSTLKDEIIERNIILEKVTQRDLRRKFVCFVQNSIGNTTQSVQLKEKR
Description: (§1) Both mouse IgG1 and human IgG4 versions of the derived antibody were measured to determine KD for monomeric antigen using BIAcore™ (Table 2). Binding affinity of monomeric receptor was measured by capturing mAb from subclone hybridoma supernatant and CHO conditioned media over amine coupled anti-mouse IgG and anti-human IgG. […] Data were processed and analyzed using a 1:1 binding model and KD values were calculated.

[5] = molecular target: T3, monomeric receptor, …; assay: SPR (BIAcore), mAb from CHO conditioned medium captured on anti-human IgG, monomeric receptor 50-12.5 nM, 1:1 model
Description: as §1

- KG-1 Bioassay (IC50 nM) [1]: 0.085 nM
- Luciferase Bioassay (IC50 nM) [1]: 0.653 nM
- Kd [2]: 0.135 nM
- IC50 [3]: 0.026 nM
B1: VH1F9 (antibody, V domains shown)
VH: QVQLVQSGAEVKKPGASVRVSCKASGYTFTSYDINWVRQATGQGLEYMGWMNPNSGNTGYAQKFQGRVSLTRDTSISTAYMDLNSLRSEDTAVYYCTTPGDKWNYEYFQFWGQGTLVTVSS
VL: DIQMTQSPSSVSASVGDRVTITCRASQHISIWLAWYQQKPGKAPKLLILSASSLLSGVPSRFSGSGSGTDFALTVSSLQPEDFATYYCQQANSFPSFGPGTKVEIK
notes: Hybridoma-derived chimeric IgG: human variable regions, mouse constant regions

- Kd [4]: 6.81 nM
B2: VH1F9-18, mouse IgG1 (antibody, V domains shown)
VH: QVQLVQSGAEVKKPGASVRVSCKASGYTFTSYDINWVRQATGQGLEYMGWMNPNSGNTGYAQKFQGRVSLTRDTSISTAYMDLNSLRSEDTAVYYCTTPGDKWNYEYFQFWGQGTLVTVSS
VL: DIQMTQSPSSVSASVGDRVTITCRASQHISIWLAWYQQKPGKAPKLLILSASSLLSGVPSRFSGSGSGTDFALTVSSLQPEDFATYYCQQANSFPSFGPGTKVEIK
notes: Chimeric: human variable, mouse IgG1 constant; from subclone hybridoma supernatant; subclone -18 of VH1F9

- Kd [5]: 6 nM
B3: VH1F9-18, human IgG4 (antibody, V domains shown)
VH: QVQLVQSGAEVKKPGASVRVSCKASGYTFTSYDINWVRQATGQGLEYMGWMNPNSGNTGYAQKFQGRVSLTRDTSISTAYMDLNSLRSEDTAVYYCTTPGDKWNYEYFQFWGQGTLVTVSS
VL: DIQMTQSPSSVSASVGDRVTITCRASQHISIWLAWYQQKPGKAPKLLILSASSLLSGVPSRFSGSGSGTDFALTVSSLQPEDFATYYCQQANSFPSFGPGTKVEIK
notes: Fully human IgG4 version from CHO conditioned medium
